Values joined by “and” are separate entries in the source; they are usually repeats but may differ in a detail not shown here. Equal values may be shown once. “Also recorded” adds a separate entry of the source.
How the values were obtained:
[1] = tested on: unresectable pancreatic cancer; test: Clinical activity of DMUC5754A (RECIST) in pancreatic cancer patients; assay type: in vivo, human; conditions: PC patients, 2.4 mg/kg q3w, 10 patients treated
Method: This multicenter, open-label, dose-escalation study was designed to identify the recommended Phase II dose (RP2D) of DMUC5754A in patients with platinum-resistant OC or unresectable pancreatic cancer. In the single-agent dose escalation stage utilizing a 3+3 enrollment scheme, patients were given intravenous DMUC5754A (Genentech Inc.) 0.3-3.2 mg/kg every 3 weeks (q3w) to evaluate the safety, tolerability, and pharmacokinetics of DMUC5754A. Following determination of the maximum tolerated dose (MTD), dose-expansion cohorts were enrolled at the RP2D of 2.4 mg/kg to further characterize the safety and preliminary clinical efficacy of DMUC5754A.
PC patients had histologic documentation of incurable, locally advanced, or metastatic disease for which no standard therapy exists, consisting of unresectable pancreatic ductal adenocarcinoma (i.e., patients with locally advanced or metastatic disease who are not considered eligible for surgical resection with curative intent), including recurrence of previously-resected disease considered unresectable with curative intent. […]
Objective response rate was estimated only for patients with disease that was measurable by RECIST guidelines. Objective response is defined as a complete or partial response, as determined by investigator assessment and confirmed by repeat assessments ≥4 weeks after initial documentation. […]

[2] = DMUC5754A pharmacokinetics in patients (total antibody ELISA; acMMAE and unconjugated MMAE LC/MS/MS); assay type: in vivo, human
Description: Pharmacokinetics (PK) of DMUC5754A was characterized following q3w or qlw dosing schedules in both OC and PC patients. Serum or plasma samples at multiple pre-specified time points were quantified for three analytes (unconjugated MMAE, DMUC5754A total antibody, and DMUC5754A conjugate (measured as antibody-conjugated MMAE, acMMAE)). Total antibody (antibody with MMAE-to-antibody ratio equal or greater than zero, including conjugated, partially deconjugated and fully deconjugated antibody) were analyzed using validated enzyme-linked immunosorbent assay methods with the minimum quantifiable concentration of 60 ng/mL. Plasma acMMAE and unconjugated MMAE were determined by using validated LC/MS/MS assays. The lower limit of quantitation (LLOQ) for the acMMAE assay and unconjugated MMAE were 0.359 ng/mL and 0.0359 ng/mL in human plasma, respectively. PK data after Cycle 1, Day 1 dose of DMUC5754A were analyzed with non-compartmental analysis using Phoenix WinNonlin 6.2 (Certara, L. P.), and further evaluated based on dose regimen and cancer type.

[3] = Serum anti-therapeutic antibody (ATA) bridging antibody ELISA; assay type: in vivo, human; conditions: patients; minimal impact on the exposure
Method: Serum anti-therapeutic antibody (ATA) samples were collected from all treated patients and were analyzed using a validated bridging antibody ELISA. Positive antibody responses were further characterized by competitive binding to determine if the response was primarily directed against the antibody or the linker-drug portion of the ADC.

[4] = tested on: MUC16 expressing mouse ovarian and pancreatic cancer xenograft models; test: Mouse xenograft anti-tumor activity; assay type: in vivo; conditions: single agent
[5] = Cycle 1, 2.4 mg/kg q3w, OC (n = 29), Mean [SD]
[6] = Cycle 1, 2.4 mg/kg q3w, PC (n = 10), Mean [SD]
[7] = q1w 1st dose, 0.8 mg/kg, OC, N 3
[8] = q1w 1st dose, 1.1 mg/kg, OC, N 7
[9] = q1w 1st dose, 1.4 mg/kg, OC, N 6
[10] = q1w 1st dose, 1.4 mg/kg, PC, N 1
[11] = q1w 1st dose, 1.6 mg/kg, OC, N 4
[12] = q3w 1st cycle, 0.3 mg/kg, OC, N 3
[13] = q3w 1st cycle, 0.6 mg/kg, OC, N 3
[14] = q3w 1st cycle, 1.2 mg/kg, OC, N 3
[15] = q3w 1st cycle, 1.8 mg/kg, OC, N 3
[16] = q3w 1st cycle, 2.4 mg/kg, OC, N 29
[17] = q3w 1st cycle, 2.4 mg/kg, PC, N 10
[18] = q3w 1st cycle, 3.2 mg/kg, OC, N 3

B1: DMUC5754A: antibody-drug conjugate: humanized IgG1 anti-MUC16 monoclonal antibody and MMAE, linked through protease labile linker maleimidocaproyl-valine-citrulline-p-aminobenzyloxycarbonyl (conjugate, chains of the INN, looked up)
VH: EVQLVESGGGLVQPGGSLRLSCAASGYSITNDYAWNWVRQAPGKGLEWVGYISYSGYTTYNPSLKSRFTISRDTSKNTLYLQMNSLRAEDTAVYYCARWTSGLDYWGQGTLVTVSS
VL: DIQMTQSPSSLSASVGDRVTITCKASDLIHNWLAWYQQKPGKAPKLLIYGATSLETGVPSRFSGSGSGTDFTLTISSLQPEDFATYYCQQYWTTPFTFGQGTKVEIK
modifications: MMAE via mc-vc-PABC linker
radiographic responses [1]: No patients; also recorded: no radiologic responses | acMMAE CL [2, 5]: 1.06 ± 0.35 mL/h/kg | acMMAE Vss [2, 5]: 82.1 ± 21.1 mL/kg | acMMAE t1/2 [2, 5]: 5.01 ± 1.45 days | acMMAE Vss [2, 6]: 94.6 [32.4] mL/kg | acMMAE t1/2 [2, 6]: 5.42 [1.91] day | systemic unconjugated MMAE exposure, fold less than acMMAE exposure ([2]; human, in vivo): approximately 100 fold | Total Antibody AUCinf [2, 7]: 33.2 µg·days/mL | Total Antibody Cmax [2, 7]: 13000 ng/mL | acMMAE AUCinf [2, 7]: 386 ng·days/mL | acMMAE Cmax [2, 7]: 227 ng/mL | Unconjugated MMAE Cmax ([2]; q1w 1st dose, 0.8 mg/kg, OC, n = 2): 1.24 ng/mL | Total Antibody AUCinf [2, 8]: 56.1 µg·days/mL | Total Antibody Cmax [2, 8]: 17700 ng/mL | Unconjugated MMAE Cmax [2, 8]: 3.23 ng/mL | acMMAE Cmax [2, 8]: 301 ng/mL | acMMAE AUCinf ([2]; q1w 1st dose, 1.1 mg/kg, OC, n = 6): 612 ng·days/mL | Total Antibody AUCinf [2, 9]: 73.0 µg·days/mL | Total Antibody Cmax [2, 9]: 23900 ng/mL | Unconjugated MMAE Cmax [2, 9]: 3.73 ng/mL | acMMAE Cmax [2, 9]: 449 ng/mL | acMMAE AUCinf ([2]; q1w 1st dose, 1.4 mg/kg, OC, n = 5): 813 ng·days/mL | Total Antibody AUCinf [2, 10]: 55.7 µg·days/mL | Total Antibody Cmax [2, 10]: 17300 ng/mL | Unconjugated MMAE Cmax [2, 10]: 7.59 ng/mL | acMMAE AUCinf [2, 10]: 542 ng·days/mL | acMMAE Cmax [2, 10]: 204 ng/mL | Total Antibody AUCinf [2, 11]: 82.3 µg·days/mL | Total Antibody Cmax [2, 11]: 29700 ng/mL | Unconjugated MMAE Cmax [2, 11]: 5.75 ng/mL | acMMAE AUCinf [2, 11]: 957 ng·days/mL | acMMAE Cmax [2, 11]: 539 ng/mL | Total Antibody Cmax [2, 12]: 6650 ng/mL | Unconjugated MMAE AUCinf [2, 12]: 4.33 ng·days/mL | Unconjugated MMAE Cmax [2, 12]: 0.675 ng/mL | acMMAE AUCinf [2, 12]: 135 ng·days/mL | acMMAE Cmax [2, 12]: 93.3 ng/mL | Total Antibody AUCinf ([2]; q3w 1st cycle, 0.3 mg/kg, OC, n = 2): 13.1 µg·days/mL | Total Antibody AUCinf [2, 13]: 29.5 µg·days/mL | Total Antibody Cmax [2, 13]: 16600 ng/mL | Unconjugated MMAE AUCinf [2, 13]: 10.3 ng·days/mL | Unconjugated MMAE Cmax [2, 13]: 2.03 ng/mL | acMMAE AUCinf [2, 13]: 310 ng·days/mL | acMMAE Cmax [2, 13]: 226 ng/mL | Total Antibody AUCinf [2, 14]: 81.8 µg·days/mL | Total Antibody Cmax [2, 14]: 22500 ng/mL | Unconjugated MMAE AUCinf [2, 14]: 19.2 ng·days/mL | Unconjugated MMAE Cmax [2, 14]: 2.84 ng/mL | acMMAE AUCinf [2, 14]: 715 ng·days/mL | acMMAE Cmax [2, 14]: 337 ng/mL | Total Antibody AUCinf [2, 15]: 106.0 µg·days/mL | Total Antibody Cmax [2, 15]: 35500 ng/mL | Unconjugated MMAE AUCinf [2, 15]: 33.1 ng·days/mL | Unconjugated MMAE Cmax [2, 15]: 4.7 ng/mL | acMMAE AUCinf [2, 15]: 1050 ng·days/mL | acMMAE Cmax [2, 15]: 618 ng/mL | Total Antibody AUCinf [2, 16]: 178.0 µg·days/mL | Total Antibody Cmax [2, 16]: 42200 ng/mL | Unconjugated MMAE Cmax [2, 16]: 6.77 ng/mL | acMMAE AUCinf [2, 16]: 1850 ng·days/mL | acMMAE Cmax [2, 16]: 860 ng/mL and 860 [216] ng/mL | Unconjugated MMAE AUCinf ([2]; q3w 1st cycle, 2.4 mg/kg, OC, n = 28): 55.5 ng·days/mL | Total Antibody AUCinf [2, 17]: 167.0 µg·days/mL | Total Antibody Cmax [2, 17]: 38900 ng/mL | Unconjugated MMAE AUCinf [2, 17]: 63.6 ng·days/mL | Unconjugated MMAE Cmax [2, 17]: 7.7 ng/mL | acMMAE AUCinf [2, 17]: 1680 ng·days/mL | acMMAE Cmax [2, 17]: 737 ng/mL and 737 [115] ng/mL | Total Antibody AUCinf [2, 18]: 324.0 µg·days/mL | Total Antibody Cmax [2, 18]: 71400 ng/mL | Unconjugated MMAE Cmax [2, 18]: 20 ng/mL | acMMAE AUCinf [2, 18]: 3380 ng·days/mL | acMMAE Cmax [2, 18]: 1220 ng/mL | Unconjugated MMAE AUCinf ([2]; q3w 1st cycle, 3.2 mg/kg, OC, n = 1): 111 ng·days/mL | increase of exposure of acMMAE or total antibody (Cmax or AUCinf, Cycle 1) with dose ([2]; q3w and q1w cohorts, 0.3-3.2 mg/kg, nonlinear PK): not dose proportional | immunogenicity rate [3]: 14.1% | anti-tumor activity [4]: potent and selective single agent anti-tumor activity

— patent publication US11440969B2, “Use of human epididymis protein 4 (HE4) for assessing responsiveness of MUC 16-positive cancer treatment” (Genentech, Inc., priority 2016, dated 2022)
